{"source": "paper PMC6862464", "about": "“Structural Insights into AQP2 Targeting to Multivesicular Bodies” (International Journal of Molecular Sciences, 2019)", "binders": {"B1": {"name": "human aquaporin 2 (AQP2), wild-type (natural protein, UniProt P41181 1-271, looked up)", "chain": "MWELRSIAFSRAVFAEFLATLLFVFFGLGSALNWPQALPSVLQIAMAFGLGIGTLVQALGHISGAHINPAVTVACLVGCHVSVLRAAFYVAAQLLGAVAGAALLHEITPADIRGDLAVNALSNSTTAGQAVTVELFLTLQLVLCIFASTDERRGENPGTPALSIGFSVALGHLLGIHYTGCSMNPARSLAPAVVTGKFDDHWVFWIGPLVGAILGSLLYNYVLFPPAKSLSERLAVLKGLEPDTDWEEREVRRRQSVELHSPQSLPRGTKA", "modifications": "cysteine residues labeled with C5 maleimide Alexa 488; dephosphorylated with alkaline phosphatase before labeling", "notes": "concentrations and molar ratios seem to count monomers; His-tag is called uncleavable; also called WT; labeled AQP2; source: Pichia pastoris, purified (HisTrap, SEC) in OGNG; not shown: His-tag, N-terminal, kept"}}, "test_in_all_cases": "other fluorescence titration; Alexa 488-labeled, dephosphorylated AQP2 (around 1 uM) in the cuvette, titrated with unlabeled LIP5; total fluorescence; 20 mM Tris-HCl pH 8, 300 mM NaCl, 0.2% OGNG; triplicate titrations", "settings_in_all_cases": "both partners purified", "key": {"[1]": {"target": "T1, full-length human LIP5 M47A (human, UniProt Q9NP79 1-307, M47A)", "T1 construct": "LIP5, human, full length, point mutant; spacer before the TEV site and His tag, as in m2; Mutant of m2; dimer as said of full-length LIP5 (cited); source: E. coli BL21*(DE3), purified (HisTrap, SEC)", "T1 sequence": "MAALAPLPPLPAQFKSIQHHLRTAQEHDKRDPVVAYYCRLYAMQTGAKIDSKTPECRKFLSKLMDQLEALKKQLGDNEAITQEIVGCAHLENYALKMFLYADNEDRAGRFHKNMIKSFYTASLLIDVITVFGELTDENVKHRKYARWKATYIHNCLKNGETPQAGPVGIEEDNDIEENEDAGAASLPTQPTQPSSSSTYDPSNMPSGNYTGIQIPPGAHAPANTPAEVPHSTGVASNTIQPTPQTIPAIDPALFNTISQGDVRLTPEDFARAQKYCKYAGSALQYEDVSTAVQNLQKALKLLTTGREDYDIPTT"}, "[2]": {"target": "T2, full-length human LIP5 K71A (human, UniProt Q9NP79 1-307, K71A)", "T2 construct": "LIP5, human, full length, point mutant; spacer before the TEV site and His tag, as in m2; Mutant of m2; dimer as said of full-length LIP5 (cited); source: E. coli BL21*(DE3), purified (HisTrap, SEC)", "T2 sequence": "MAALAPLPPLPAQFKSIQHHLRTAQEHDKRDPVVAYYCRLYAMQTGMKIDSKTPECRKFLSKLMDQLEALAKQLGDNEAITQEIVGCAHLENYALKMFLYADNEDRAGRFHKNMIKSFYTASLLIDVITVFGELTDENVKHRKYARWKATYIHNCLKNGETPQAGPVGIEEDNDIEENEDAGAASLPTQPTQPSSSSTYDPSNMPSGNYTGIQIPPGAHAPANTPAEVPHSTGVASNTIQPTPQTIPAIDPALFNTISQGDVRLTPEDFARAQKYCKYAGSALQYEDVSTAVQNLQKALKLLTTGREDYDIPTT"}, "[3]": {"target": "T3, full-length human lysosomal trafficking regulator-interacting protein 5 (FL-LIP5) (human, UniProt Q9NP79 1-307)", "T3 construct": "spacer between the last LIP5 residue and the TEV protease site that precedes the His tag; same tag, TEV site and linker as ND-LIP5; No TEV cleavage is described; also called full-length LIP5; wild-type LIP5; source: E. coli BL21*(DE3), purified (HisTrap, SEC)", "T3 sequence": "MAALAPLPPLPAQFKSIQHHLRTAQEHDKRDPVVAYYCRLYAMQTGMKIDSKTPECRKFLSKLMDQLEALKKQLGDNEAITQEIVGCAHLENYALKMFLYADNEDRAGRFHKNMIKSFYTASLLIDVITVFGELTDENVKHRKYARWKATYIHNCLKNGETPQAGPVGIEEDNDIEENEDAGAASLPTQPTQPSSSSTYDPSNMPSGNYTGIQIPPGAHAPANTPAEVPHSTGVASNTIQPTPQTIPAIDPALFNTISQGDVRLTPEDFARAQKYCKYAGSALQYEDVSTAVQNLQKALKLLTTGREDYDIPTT"}, "[4]": {"target": "T4, full-length human LIP5 M64A (human, UniProt Q9NP79 1-307, M64A)", "T4 construct": "LIP5, human, full length, point mutant; spacer before the TEV site and His tag, as in m2; Mutant of m2; dimer as said of full-length LIP5 (cited); source: E. coli BL21*(DE3), purified (HisTrap, SEC)", "T4 sequence": "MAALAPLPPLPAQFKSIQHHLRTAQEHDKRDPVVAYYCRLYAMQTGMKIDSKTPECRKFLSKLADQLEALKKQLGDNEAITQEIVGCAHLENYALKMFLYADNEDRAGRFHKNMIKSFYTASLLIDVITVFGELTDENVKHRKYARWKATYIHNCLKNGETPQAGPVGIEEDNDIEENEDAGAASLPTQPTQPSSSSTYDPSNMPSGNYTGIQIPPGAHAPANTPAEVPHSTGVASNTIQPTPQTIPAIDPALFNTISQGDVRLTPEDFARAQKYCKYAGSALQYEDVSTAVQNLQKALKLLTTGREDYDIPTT"}, "[5]": {"target": "T5, full-length human LIP5 M43A (human, UniProt Q9NP79 1-307, M43A)", "T5 construct": "LIP5, human, full length, point mutant; spacer before the TEV site and His tag, as in m2; Mutant of m2; dimer as said of full-length LIP5 (cited); source: E. coli BL21*(DE3), purified (HisTrap, SEC)", "T5 sequence": "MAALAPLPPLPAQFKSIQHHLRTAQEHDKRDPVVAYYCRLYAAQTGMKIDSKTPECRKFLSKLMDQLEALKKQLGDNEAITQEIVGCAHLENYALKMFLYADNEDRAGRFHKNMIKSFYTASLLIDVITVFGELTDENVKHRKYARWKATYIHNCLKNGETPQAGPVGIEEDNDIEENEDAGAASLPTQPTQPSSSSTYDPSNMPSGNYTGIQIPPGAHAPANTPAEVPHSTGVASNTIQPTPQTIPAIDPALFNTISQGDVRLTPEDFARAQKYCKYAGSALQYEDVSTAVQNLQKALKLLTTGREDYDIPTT"}, "[6]": {"target": "T6, full-length human LIP5 D65A (human, UniProt Q9NP79 1-307, D65A)", "T6 construct": "LIP5, human, full length, point mutant; spacer before the TEV site and His tag, as in m2; Mutant of m2; dimer as said of full-length LIP5 (cited); source: E. coli BL21*(DE3), purified (HisTrap, SEC)", "T6 sequence": "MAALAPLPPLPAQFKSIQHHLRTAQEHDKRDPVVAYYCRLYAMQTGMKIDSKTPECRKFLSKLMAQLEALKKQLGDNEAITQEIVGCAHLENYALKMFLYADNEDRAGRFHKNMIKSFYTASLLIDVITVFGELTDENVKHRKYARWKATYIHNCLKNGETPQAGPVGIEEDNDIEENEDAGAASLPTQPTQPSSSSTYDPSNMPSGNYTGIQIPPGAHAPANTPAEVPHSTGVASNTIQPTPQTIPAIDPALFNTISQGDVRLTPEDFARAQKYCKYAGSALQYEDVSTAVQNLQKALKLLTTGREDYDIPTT"}}, "data": [{"binder": "B1", "values": [{"measurement": "Kd", "setting": "[1]", "value": 463, "unit": "nM"}, {"measurement": "Kd", "setting": "[2]", "value": 137, "unit": "nM"}, {"measurement": "Kd", "setting": "[3]", "value": 237, "unit": "nM"}, {"measurement": "Kd", "setting": "[4]", "value": 271, "unit": "nM"}, {"measurement": "Kd", "setting": "[5]", "value": 457, "unit": "nM"}, {"measurement": "Kd", "setting": "[6]", "value": 149, "unit": "nM"}]}]}
